Results: article PMC5051949, “Mechanism of Rifampicin Inactivation in Nocardia farcinica” (PLoS ONE, 2016)

Key:
[1] = target: T1, RifMO (rifampicin monooxygenase) (Nocardia farcinica, UniProt Q5YTV5); assay: steady-state oxygen consumption (oxygraph); assay type: biochemical; details: substrate inhibition by NADPH; 30 μM Rif, 100 mM sodium phosphate pH 7.5, 25°C
T1 construct: gene rox; full-length, codon optimized, pET15b N-terminal 6xHis tag cleaved with thrombin, expressed in E. coli
Description: (§1) steady-state oxygen consumption (oxygraph) on RifMO (rifampicin monooxygenase)

[2] = system: NC(=O)C1=CN([C@@H]2O[C@H](COP(=O)(O)OP(=O)(O)OC[C@H]3O[C@@H](n4cnc5c(N)ncnc54)[C@H](OP(=O)(O)O)[C@@H]3O)[C@@H](O)[C@H]2O)C=CC1; assay: steady-state oxygen consumption (oxygraph); assay type: biochemical, Nocardia farcinica; details: 30 μM Rif, 100 mM sodium phosphate pH 7.5, 25°C, varied: cofactor
Description: as §1

[3] = system: CO[C@H]1/C=C/O[C@@]2(C)Oc3c(C)c(O)c4c(O)c(c(/C=N/N5CCN(C)CC5)c(O)c4c3C2=O)NC(=O)/C(C)=C\C=C\[C@H](C)[C@H](O)[C@@H](C)[C@@H](O)[C@@H](C)[C@H](OC(C)=O)[C@@H]1C; assay: steady-state oxygen consumption (oxygraph); assay type: biochemical, Nocardia farcinica; details: 1 mM NADPH, 100 mM sodium phosphate pH 7.5, 25°C
Description: as §1

[4] = system: NC(=O)C1=CN([C@@H]2O[C@H](COP(=O)(O)OP(=O)(O)OC[C@H]3O[C@@H](n4cnc5c(N)ncnc54)[C@H](O)[C@@H]3O)[C@@H](O)[C@H]2O)C=CC1; assay: steady-state oxygen consumption (oxygraph); assay type: biochemical, Nocardia farcinica; details: 30 μM Rif, 100 mM sodium phosphate pH 7.5, 25°C, varied: cofactor
Description: as §1

[5] = target: T1, RifMO (rifampicin monooxygenase); assay: flavin absorbance change at […] nm (spectral titration); assay type: binding

T1 sequence (Q5YTV5 whole entry): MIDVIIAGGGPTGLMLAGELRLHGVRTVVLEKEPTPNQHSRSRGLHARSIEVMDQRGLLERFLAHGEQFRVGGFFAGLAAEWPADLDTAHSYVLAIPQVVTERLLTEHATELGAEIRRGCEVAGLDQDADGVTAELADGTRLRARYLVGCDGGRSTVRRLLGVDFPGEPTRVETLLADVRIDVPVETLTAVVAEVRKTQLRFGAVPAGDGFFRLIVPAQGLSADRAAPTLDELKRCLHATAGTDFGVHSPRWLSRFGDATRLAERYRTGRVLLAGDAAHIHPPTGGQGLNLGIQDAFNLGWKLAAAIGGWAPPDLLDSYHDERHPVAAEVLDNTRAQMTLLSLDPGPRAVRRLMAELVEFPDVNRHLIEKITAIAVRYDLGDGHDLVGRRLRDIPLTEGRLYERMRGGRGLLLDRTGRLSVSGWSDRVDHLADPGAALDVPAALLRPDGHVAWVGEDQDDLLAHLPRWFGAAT

NC(=O)C1=CN([C@@H]2O[C@H](COP(=O)(O)OP(=O)(O)OC[C@H]3O[C@@H](n4cnc5c(N)ncnc54)[C@H](OP(=O)(O)O)[C@@H]3O)[C@@H](O)[C@H]2O)C=CC1 [NADPH]
KI [1]: 33 ± 4.0 mM

RifMO (rifampicin monooxygenase) (Nocardia farcinica IFM 10152)
Km [2]: 90 ± 10 µM
kcat [2]: 4 ± 0.1 s⁻¹
kcat/Km [2]: 43100 ± 3700 M⁻¹ s⁻¹
Km [3]: 5.8 ± 0.88 µM
kcat [3]: 4 ± 0.16 s⁻¹
kcat/Km [3]: 700000 ± 81300 M⁻¹ s⁻¹
Km [4]: 266 ± 25 µM
kcat [4]: 3.3 ± 0.06 s⁻¹
kcat/Km [4]: 12600 ± 1000 M⁻¹ s⁻¹

CO[C@H]1/C=C/O[C@@]2(C)Oc3c(C)c(O)c4c(O)c(c(/C=N/N5CCN(C)CC5)c(O)c4c3C2=O)NC(=O)/C(C)=C\C=C\[C@H](C)[C@H](O)[C@@H](C)[C@@H](O)[C@@H](C)[C@H](OC(C)=O)[C@@H]1C [Rif, rifampicin]
Kd [5]: 9.5 ± 2.5 µM
